For test [1], the target named is T1, N-terminal GFP fusion of gp78 residues 574-611 (GFP-574-611) (human, UniProt P42212 1-238 = GFP).
T1 construct: the vector encodes the enhanced variant; also called G2BD
The test can be described thus: co-immunoprecipitation with GFP fusion from HEK 293T cells.
Experimental: J558 cells were transfected by electroporation using Bio-rad GENE pulser II at settings of 250 v, 950uF. Vector without insert was used to equalize total plasmid. In most experiments 0.15 μg of pEGFP-C1 served as an internal control. For experiments not involving immunoprecipitation, 6×10^5 cells were plated in 6 well plates and cell lysis was with Mammalian Protein Extraction Reagent (Pierce). For immunoprecipitation, 2.4× 10^6 cells were seeded in 100 mm dishes and cells were lysed in RIPA buffer (1×PBS, 1% Nonidet P40. 0.5% sodium deoxycholate, 0.1% SDS). Lysis buffers were supplemented with Protease Inhibitor Cocktail (Sigma) and 10 mM iodoacetamide. Supernatants were analyzed after a 10,000×g centrifugation using standard techniques for immunoprecipitation, SDS-PAGE, immunoblotting and ECL. Treatment of cells with MG132 (Sigma) was at 50 μM for eight hr. Cycloheximnide was used at 50 μg/ml. All cells were collected at the end of the six hr chase.
Cells were transfected with plasmids encoding GFP fusions of the indicated regions of gp78, and co-immunoprecipitation was evaluated.

Test [2] addresses N-terminal GFP fusion of gp78 residues 574-611 with the E2-m2 mutation (GFP-574-611E2-m2) (human, UniProt P42212 1-238 = GFP). Kind of test: anti-GFP immunoprecipitation from HEK 293T cells, immunoblot for endogenous Ube2G2.
Experimental: (§1) (FIG. 19A) Cells were co-transfected with Myc-Ube2G2 and the indicated gp78 mutants. […] Samples were treated with MG132 for 8 hr prior to lysis. IP (upper two panels) with anti-Myc was followed by IB as indicated. Lysate corresponding to 10% of the material used for IP was directly IB'ed for gp78 in the lower panel. […] Anti-GFP IPs (left panel) or whole cell lysates corresponding to approximately 10% of the amount used for IP (right panel) were IB'ed with antibodies raised against different E2s as indicated. (C) Cells were transfected with GFP fusions as in B together with plasmid encoding Myc-tagged Ube2G2 and IP carried out with anti-Myc (upper two panels). Immunoblotting of IPs and whole cell lysate (lower panel) was with either anti-GFP (top and bottom panels) or with anti-Myc (middle panel).
(§2) Vector without insert was used to equalize total plasmid. In most experiments 0.15 μg of pEGFP-C1 served as an internal control. For experiments not involving immunoprecipitation, 6×10^5 cells were plated in 6 well plates and cell lysis was with Mammalian Protein Extraction Reagent (Pierce). For immunoprecipitation, 2.4× 10^6 cells were seeded in 100 mm dishes and cells were lysed in RIPA buffer (1×PBS, 1% Nonidet P40. 0.5% sodium deoxycholate, 0.1% SDS). […] Supernatants were analyzed after a 10,000×g centrifugation using standard techniques for immunoprecipitation, SDS-PAGE, immunoblotting and ECL. […]
For test [3], the target named is T2, gp78 truncated after amino acid 576 of SEQ ID NO:2 (gp78576) (human, UniProt Q9UKV5 1-576).
T2 construct: C-terminal truncation after the indicated amino acid
T2 sequence (Q9UKV5 1-576): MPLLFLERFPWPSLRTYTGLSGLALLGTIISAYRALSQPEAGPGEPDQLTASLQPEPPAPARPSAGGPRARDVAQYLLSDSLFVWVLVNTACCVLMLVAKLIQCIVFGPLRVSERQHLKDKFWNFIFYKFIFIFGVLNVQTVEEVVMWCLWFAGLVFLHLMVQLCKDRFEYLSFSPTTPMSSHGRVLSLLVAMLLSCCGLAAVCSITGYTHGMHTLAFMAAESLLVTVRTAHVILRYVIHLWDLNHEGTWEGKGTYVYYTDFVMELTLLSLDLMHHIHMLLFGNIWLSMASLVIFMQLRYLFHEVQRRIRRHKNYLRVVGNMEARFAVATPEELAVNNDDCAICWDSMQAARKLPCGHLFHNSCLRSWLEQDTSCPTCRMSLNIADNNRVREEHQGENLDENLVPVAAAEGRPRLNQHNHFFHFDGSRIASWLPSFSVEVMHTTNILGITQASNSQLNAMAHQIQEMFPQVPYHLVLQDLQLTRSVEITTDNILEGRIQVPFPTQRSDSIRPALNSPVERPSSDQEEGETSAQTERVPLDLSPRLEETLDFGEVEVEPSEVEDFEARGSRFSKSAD
The test can be described thus: anti-Myc immunoprecipitation from co-transfected cells, anti-gp78 immunoblot.
Experimental: (§3) Samples were treated with MG132 for 8 hr prior to lysis. IP (upper two panels) with anti-Myc was followed by IB as indicated. Lysate corresponding to 10% of the material used for IP was directly IB'ed for gp78 in the lower panel.
(§4) Cells were treated with the proteasome inhibitor MG132 in an attempt to equalize levels of the various forms of gp78.

For test [4], the target named is T3, gp78 truncated after amino acid 595 of SEQ ID NO:2 (gp78595) (human, UniProt Q9UKV5 1-595).
T3 construct: C-terminal truncation after the indicated amino acid
T3 sequence (Q9UKV5 1-595): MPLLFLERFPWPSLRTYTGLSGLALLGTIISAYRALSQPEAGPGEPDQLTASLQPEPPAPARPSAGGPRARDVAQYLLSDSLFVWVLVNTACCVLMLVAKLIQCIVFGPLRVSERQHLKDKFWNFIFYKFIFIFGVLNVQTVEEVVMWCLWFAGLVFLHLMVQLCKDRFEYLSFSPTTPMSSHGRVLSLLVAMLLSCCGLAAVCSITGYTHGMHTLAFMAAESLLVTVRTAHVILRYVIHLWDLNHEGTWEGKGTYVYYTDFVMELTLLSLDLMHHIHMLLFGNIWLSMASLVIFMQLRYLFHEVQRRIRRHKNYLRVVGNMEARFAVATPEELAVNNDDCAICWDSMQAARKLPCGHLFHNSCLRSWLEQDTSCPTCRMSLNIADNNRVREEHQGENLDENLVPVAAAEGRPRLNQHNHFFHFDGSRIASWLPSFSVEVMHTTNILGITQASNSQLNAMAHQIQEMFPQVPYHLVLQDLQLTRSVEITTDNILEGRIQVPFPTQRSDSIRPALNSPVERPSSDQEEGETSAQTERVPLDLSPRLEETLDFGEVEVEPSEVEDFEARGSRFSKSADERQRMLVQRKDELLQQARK
Described as above.
Experimental: as §3, §4

The target of test [5] is T4, gp78 truncated after residue 611 of SEQ ID NO:2 (gp78611) (human, UniProt Q9UKV5 1-611).
T4 construct: C-terminal truncation after the indicated amino acid
T4 sequence (Q9UKV5 1-611): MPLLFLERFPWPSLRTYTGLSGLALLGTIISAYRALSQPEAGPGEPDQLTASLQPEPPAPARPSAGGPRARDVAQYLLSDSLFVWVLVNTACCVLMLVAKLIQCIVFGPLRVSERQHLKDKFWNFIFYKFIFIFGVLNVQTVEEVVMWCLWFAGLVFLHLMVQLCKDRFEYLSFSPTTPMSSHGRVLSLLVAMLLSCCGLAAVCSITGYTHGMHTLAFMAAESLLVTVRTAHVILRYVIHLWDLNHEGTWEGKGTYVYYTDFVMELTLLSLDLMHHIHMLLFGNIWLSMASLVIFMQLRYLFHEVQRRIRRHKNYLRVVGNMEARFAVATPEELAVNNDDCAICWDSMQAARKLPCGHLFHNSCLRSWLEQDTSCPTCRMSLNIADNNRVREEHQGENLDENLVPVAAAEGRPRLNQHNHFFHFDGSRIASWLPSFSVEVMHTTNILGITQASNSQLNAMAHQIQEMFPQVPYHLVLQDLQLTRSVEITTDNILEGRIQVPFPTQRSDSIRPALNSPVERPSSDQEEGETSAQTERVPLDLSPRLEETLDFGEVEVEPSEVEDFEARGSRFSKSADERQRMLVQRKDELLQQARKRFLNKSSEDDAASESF
The description is as above.
Experimental: as §3, §4

Test [6] addresses N-terminal GFP fusion of gp78 amino acids 579-600 of SEQ ID NO:2 (human, UniProt P42212 1-238 = GFP). The test can be described thus: anti-Myc immunoprecipitation from cells co-transfected with GFP fusion and Myc-Ube2G2, anti-GFP immunoblot.
Experimental: as §1, §2

The values below come from patent US8420776 (US Dept. of Health and Human Services, dated 2013).

B1: endogenous Ube2G2 of HEK 293T cells (enzyme)
chain: AGTALKRLMAEYKQLTLNPPEGIVAGPMNEENFFEWEALIMGPEDTCFEFGVFPAILSFPLDYPLSPPKMRFTCEMFHPNIYPDGRVCISILHAPGDDPMGYESSAERWSPVQSVEKILLSVVSMLAEPNDESGANVDASKMWRDDREQFYKIAKQIVQKSLGL
notes: Endogenous protein in cell lysate, detected with rabbit antiserum to residues 148-165; also called endogenous E2
Turning to B1, the figures for the binding result in test [1] and in test [2] were “binds” and “no binding”, respectively.

B2: Myc-Ube2G2, co-expressed in HEK 293T cells (enzyme, not shown: small tags and cut ends)
chain: MAGTALKRLMAEYKQLTLNPPEGIVAGPMNEENFFEWEALIMGPEDTCFEFGVFPAILSFPLDYPLSPPKMRFTCEMFHPNIYPDGRVCISILHAPGDDPMGYESSAERWSPVQSVEKILLSVVSMLAEPNDESGANVDASKMWRDDREQFYKIAKQIVQKSLGL
notes: Plasmid described in Tiwari and Weissman, 2001; also called Myc-MmUbc7; myc-tagged MmUbc7/Ube2G2
As to B2, the binding result in test [3] is “no binding”; in test [4], “no binding”; in test [5], “binds”; in test [6], “binds”.
